This is an account of results in patent publication US20250163140A1 (Kyowa Kirin, published 2025).

T1: Recombinant Human FGF-23 (R&D Systems, Cat No. 2604-FG-025/CF) (human, UniProt Q9GZV9 25-251)
T1 construct: Bought protein
T1 sequence (looked up): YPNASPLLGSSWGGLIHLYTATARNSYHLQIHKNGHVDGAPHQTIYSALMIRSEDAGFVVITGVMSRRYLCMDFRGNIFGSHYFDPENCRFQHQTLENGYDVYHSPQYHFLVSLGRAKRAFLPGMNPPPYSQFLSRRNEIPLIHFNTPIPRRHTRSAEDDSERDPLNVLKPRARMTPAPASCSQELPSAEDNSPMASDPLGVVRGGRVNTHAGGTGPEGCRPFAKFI

B1: antibody A_LS (antibody, human IgG1, name in EU numbering)
heavy: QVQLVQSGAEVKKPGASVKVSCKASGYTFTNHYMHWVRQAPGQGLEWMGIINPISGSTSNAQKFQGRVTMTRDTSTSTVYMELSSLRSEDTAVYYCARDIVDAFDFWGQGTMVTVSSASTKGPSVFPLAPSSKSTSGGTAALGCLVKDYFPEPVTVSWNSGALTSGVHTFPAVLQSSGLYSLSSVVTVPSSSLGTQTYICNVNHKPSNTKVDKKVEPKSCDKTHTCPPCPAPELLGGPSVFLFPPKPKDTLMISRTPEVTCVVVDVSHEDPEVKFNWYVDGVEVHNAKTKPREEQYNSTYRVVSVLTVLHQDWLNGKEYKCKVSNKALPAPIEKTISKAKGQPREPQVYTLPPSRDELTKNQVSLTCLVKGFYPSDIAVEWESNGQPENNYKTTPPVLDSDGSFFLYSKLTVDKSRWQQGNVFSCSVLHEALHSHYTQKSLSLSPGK
light: AIQLTQSPSSLSASVGDRVTITCRASQGISSALVWYQQKPGKAPKLLIYDASSLESGVPSRFSGSGSGTDFTLTISSLQPEDFATYYCQQFNDYFTFGPGTKVDIK
notes: positions are EU index; not shown: human kappa chain constant region; copies: 2 + 2
B2: antibody A_G2_LS (antibody)
heavy: QVQLVQSGAEVKKPGASVKVSCKASGYTFTNHYMHWVRQAPGQGLEWMGIINPISGSTSNAQKFQGRVTMTRDTSTSTVYMELSSLRSEDTAVYYCARDIVDAFDFWGQGTMVTVSSASTKGPSVFPLAPCSRSTSESTAALGCLVKDYFPEPVTVSWNSGALTSGVHTFPAVLQSSGLYSLSSVVTVPSSNFGTQTYTCNVDHKPSNTKVDKTVERKCCVECPPCPAPPVAGPSVFLFPPKPKDTLMISRTPEVTCVVVDVSHEDPEVQFNWYVDGVEVHNAKTKPREEQFNSTFRVVSVLTVVHQDWLNGKEYKCKVSNKGLPAPIEKTISKTKGQPREPQVYTLPPSREEMTKNQVSLTCLVKGFYPSDIAVEWESNGQPENNYKTTPPMLDSDGSFFLYSKLTVDKSRWQQGNVFSCSVLHEALHSHYTQKSLSLSPGK
light: B1 light
notes: not shown: human kappa chain constant region; copies: 2 + 2
B3: antibody I100A (antibody, human IgG1, V domains shown)
VH: QVQLVQSGAEVKKPGASVKVSCKASGYTFTNHYMHWVRQAPGQGLEWMGIINPISGSTSNAQKFQGRVTMTRDTSTSTVYMELSSLRSEDTAVYYCARDAVDAFDFWGQGTMVTVSS
VL: B1 light
notes: also called modified antibody I100
B4: antibody I100L (antibody, human IgG1, V domains shown)
VH: B3 VH with A100L
VL: B1 light
notes: as for B3
B5: antibody I100V (antibody, human IgG1, V domains shown)
VH: B3 VH with A100V
VL: B1 light
notes: as for B3
B6: antibody A-1 (antibody, V domains shown)
VH: B3 VH with I50L, I54W, S55H, S57T, T58F
VL: B1 light
notes: VH J2H2B9_A; not shown: human kappa chain constant region
B7: antibody A-2 (antibody, V domains shown)
VH: B3 VH with I50L, I54W, S55H, S57T, T58F, A100Y
VL: B1 light
notes: VH J2H2B9_Y; not shown: human kappa chain constant region
B8: antibody A-5 (antibody, V domains shown)
VH: B3 VH
VL: B1 light with G28D, I29V, S31T, V34L
notes: VL L1H8; not shown: human kappa chain constant region
B9: antibody A-4 (antibody, V domains shown)
VH: B3 VH with A100Y
VL: B1 light with F91M, N92Y, Y94D, T96N
notes: VL L3G12; not shown: human kappa chain constant region
B10: antibody A-3 (antibody, V domains shown)
VH: B3 VH
VL: B1 light with F91M, N92Y, Y94D, T96N
notes: as for B9
B11: antibody A-8 (antibody, V domains shown)
VH: B3 VH with A100Y
VL: B1 light with F91L, N92Y, Y94D, T96D
notes: VL 2L3H7; not shown: human kappa chain constant region
B12: antibody A-7 (antibody, V domains shown)
VH: B3 VH
VL: B1 light with F91L, N92Y, Y94D, T96D
notes: as for B11
B13: antibody A-6 (antibody, V domains shown)
VH: B3 VH with A100Y
VL: B1 light with G28D, I29V, S31T, V34L
notes: as for B8
B14: antibody I100R (antibody, human IgG1, V domains shown)
VH: B3 VH with A100R
VL: B1 light
notes: as for B3
B15: antibody I100G (antibody, human IgG1, V domains shown)
VH: B3 VH with A100G
VL: B1 light
notes: as for B3
B16: antibody I100D (antibody, human IgG1, V domains shown)
VH: B3 VH with A100D
VL: B1 light
notes: as for B3
B17: antibody I100Y (antibody, human IgG1, V domains shown)
VH: B3 VH with A100Y
VL: B1 light
notes: as for B3
B18: antibody I100N (antibody, human IgG1, V domains shown)
VH: B3 VH with A100N
VL: B1 light
notes: as for B3
B19: antibody I100H (antibody, human IgG1, V domains shown)
VH: B3 VH with A100H
VL: B1 light
notes: as for B3
B20: antibody D105A (antibody, human IgG1, V domains shown)
VH: B3 VH with A100I, D105A
VL: B1 light
notes: also called modified antibody D105
B21: antibody D105T (antibody, human IgG1, V domains shown)
VH: B3 VH with A100I, D105T
VL: B1 light
notes: as for B20
B22: antibody A_IgG4PE_R409K_QL (antibody)
chain 1: QVQLVQSGAEVKKPGASVKVSCKASGYTFTNHYMHWVRQAPGQGLEWMGIINPISGSTSNAQKFQGRVTMTRDTSTSTVYMELSSLRSEDTAVYYCARDIVDAFDFWGQGTMVTVSSASTKGPSVFPLAPCSRSTSESTAALGCLVKDYFPEPVTVSWNSGALTSGVHTFPAVLQSSGLYSLSSVVTVPSSSLGTKTYTCNVDHKPSNTKVDKRVESKYGPPCPPCPAPEFEGGPSVFLFPPKPKDQLMISRTPEVTCVVVDVSQEDPEVQFNWYVDGVEVHNAKTKPREEQFNSTYRVVSVLTVLHQDWLNGKEYKCKVSNKGLPSSIEKTISKAKGQPREPQVYTLPPSQEEMTKNQVSLTCLVKGFYPSDIAVEWESNGQPENNYKTTPPVLDSDGSFFLYSKLTVDKSRWQEGNVFSCSVLHEALHNHYTQKSLSLSLGK
chain 2: not shown
B23: antibody A_IgG4PE_R409K_YTE (antibody)
heavy: B22 chain 1 with Q247T, M249Y, S251T, T253E, L425M
VL: B1 light
notes: copies: 2 + 2

One may read the Kd as the concentration at which binding is half-saturated.

Substitutions are numbered along the chain they refer to.

T2 sequence (P55899 other isoform, or with tags, fused parts or gaps limits assumed, chain 1 of 2): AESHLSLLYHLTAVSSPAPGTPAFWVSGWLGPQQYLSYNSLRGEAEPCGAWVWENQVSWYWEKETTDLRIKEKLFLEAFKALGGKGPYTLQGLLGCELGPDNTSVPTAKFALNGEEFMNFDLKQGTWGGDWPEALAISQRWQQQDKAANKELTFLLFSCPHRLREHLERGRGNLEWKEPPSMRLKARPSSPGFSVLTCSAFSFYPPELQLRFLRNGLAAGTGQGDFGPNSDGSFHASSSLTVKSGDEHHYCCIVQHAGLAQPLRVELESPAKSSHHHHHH
T2 sequence (P61769 21-119 limits assumed, chain 2 of 2): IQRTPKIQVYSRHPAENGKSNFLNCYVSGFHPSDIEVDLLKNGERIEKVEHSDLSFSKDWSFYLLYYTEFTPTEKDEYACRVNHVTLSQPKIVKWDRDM

The first experiment has as its target T2, human FcRn (human FcRn-His tag with human β2 microglobulin) (human, UniProt P55899 24-297; P61769 21-119).
T2 construct: also called h FcRn; hFcRn
The experiment is described as follows: SPR pH 6, FcRn-His captured by anti-His, antibody analyte.
In the case of B1, the Kd was found to be 142 nM.

Take B2: the Kd is 310 nM.

The target in the next experiment is T1, Recombinant Human FGF-23 (R&D Systems, …). The experiment is described as follows: SPR, antibody captured by anti-human IgG, FGF-23 analyte.
For the molecule B3, the Kd is 0.014 nM.

In the case of B4, the dissociation constant Kd turned out to be 0.0126 nM.

For B5, the Kd was found to be 0.00473 nM.

Another experiment shares this target. The experiment is described as follows: SPR, antibody captured on Protein A chip, FGF-23 analyte. In general terms: Surface plasmon resonance follows binding to a sensor surface in real time, without labels.
On to B6, for which the dissociation constant (Kd) amounted to 0.00822 nM.

In the case of B7, the dissociation constant Kd is 0.00808 nM.

With B8, the Kd turned out to be 0.00361 nM.

B9: the Kd stood at 0.00874 nM.

On to B10, for which the equilibrium dissociation constant (Kd) came to 0.00827 nM.

For B11, the equilibrium dissociation constant (Kd) was found to be 0.0067 nM.

As to B12, the dissociation constant Kd turned out to be 0.0161 nM.

Turning to B13, the Kd worked out at 0.0113 nM.

The target is the same in another experiment. Put plainly: SPR, antibody captured by anti-human IgG, FGF-23 analyte. This is another data set of the same source.
For B3, the equilibrium dissociation constant (Kd) worked out at 0.0251 nM.

Regarding B14, the dissociation constant Kd amounted to 0.222 nM.

For the molecule B15, the Kd was 0.149 nM.

For the molecule B16, the Kd was 0.219 nM.

As for B17, the dissociation constant Kd is 0.0186 nM.

For the molecule B18, the Kd is 0.0934 nM.

B19: the dissociation constant Kd was determined as 0.0672 nM.

The next experiment has the same target. Described as above. This is another data set of the same source.
For B20, the Kd is 0.108 nM.

As for B21, the dissociation constant Kd came to 0.111 nM.

The target is the same in another experiment. The experiment is described as follows: cell-based or functional assay.
As to B6, the “FGF23 neutralizing activity IC50 (luciferase promoter assay)” value (shortened to “FGF23 neutralizing activity IC50”) turned out to be 3.5 ng/mL.

Regarding B7, the “FGF23 neutralizing activity IC50” value was 3.4 ng/mL.

For B8, the “FGF23 neutralizing activity IC50” value was 1.9 ng/mL.

In the case of B9, the “FGF23 neutralizing activity IC50” value came to 1.9 ng/mL.

As to B10, the “FGF23 neutralizing activity IC50” value was found to be 2.7 ng/mL.

Turning to B11, the “FGF23 neutralizing activity IC50” value was 2.4 ng/mL.

On to B12, for which the “FGF23 neutralizing activity IC50” value was 3.2 ng/mL.

On to B13, for which the “FGF23 neutralizing activity IC50” value stood at 3.6 ng/mL.

The target is the same in another experiment. Put plainly: cell-based or functional assay. The source holds these as a separate data set.
Regarding B3, the “FGF23 neutralizing activity IC50” value was 5.1 ng/mL.

For the molecule B14, the “FGF23 neutralizing activity IC50” value amounted to 82.5 ng/mL.

On to B15, for which the “FGF23 neutralizing activity IC50” value is more than 100 ng/mL.

On to B20, for which the “FGF23 neutralizing activity IC50” value is more than 100 ng/mL.

With B16, the “FGF23 neutralizing activity IC50” value is more than 100 ng/mL.

As to B17, the “FGF23 neutralizing activity IC50” value stood at 3 ng/mL.

On to B18, for which the “FGF23 neutralizing activity IC50” value stood at 26.2 ng/mL.

For the molecule B21, the “FGF23 neutralizing activity IC50” value was more than 100 ng/mL.

On to B19, for which the “FGF23 neutralizing activity IC50” value was found to be 8.9 ng/mL.

In a further experiment the target is T2, human FcRn (human FcRn-His tag with …). The experiment is described as follows: SPR pH 6, FcRn-His captured by anti-His, antibody analyte. The source holds these as a separate data set.
B22 had a Kd of 265 nM.

In turn, B23 displayed a dissociation constant Kd of 227 nM.

The target of the next experiment is T3, monkey FcRn (monkey FcRn-His tag with monkey β2 microglobulin) (cynomolgus monkey, UniProt Q8SPV9 24-297; Q8SPW0 21-119).
T3 construct: also called cyno FcRn; cynomolgus monkey FcRn extracellular domain His-tag body
T3 sequence (Q8SPV9 other isoform, or with tags, fused parts or gaps limits assumed, chain 1 of 2): as the sequence (P55899 other isoform, or with tags, fused parts or gaps limits assumed, chain 1 of 2) above, with N39D, E44Q, G99S, S189G, S190N, L217M, S269T counted along it
T3 sequence (Q8SPW0 21-119 limits assumed, chain 2 of 2): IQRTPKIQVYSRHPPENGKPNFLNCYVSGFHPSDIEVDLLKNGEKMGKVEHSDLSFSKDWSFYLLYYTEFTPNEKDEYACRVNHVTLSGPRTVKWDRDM
Described as above.
As for B22, binding was characterised by a dissociation constant (Kd) of 87 nM.

B23 had a dissociation constant Kd of 123 nM.

For another experiment, the target named is T1, Recombinant Human FGF-23 (R&D Systems, …). Put plainly: SPR, antibody captured by anti-human IgG, FGF-23 analyte. The source holds these as a separate data set.
As for B3, the dissociation constant (Kd) came to 0.0289 nM.
